From patent EP4692114A1, “CALCITONIN ANALOGUE, AND DERIVATIVE THEREOF AND USE THEREOF” (Hangzhou Sciwind Biosciences Co., Ltd., priority 2023, dated 2024)
*1 amine or outer side, *2 acyl side, *3 side chain or, on linkers, in order; H or OH if unused. The star is where a group is joined. C20 diacid = O=C(O)CCCCCCCCCCCCCCCCCCC(=O)*; C18 diacid = O=C(O)CCCCCCCCCCCCCCCCC(=O)*; C16 diacid = O=C(O)CCCCCCCCCCCCCCC(=O)*; γGlu = O=C(O)[C@H](CCC(=O)[*:2])N[*:1]; AEEA = NCCOCCOCC(=O)O

T1: human amylin receptor (AMY3) on CHO-K1/Gal5/AMY3 cells (human, UniProt P30988 25-474; O60896 24-148)
T1 sequence (looked up) 1: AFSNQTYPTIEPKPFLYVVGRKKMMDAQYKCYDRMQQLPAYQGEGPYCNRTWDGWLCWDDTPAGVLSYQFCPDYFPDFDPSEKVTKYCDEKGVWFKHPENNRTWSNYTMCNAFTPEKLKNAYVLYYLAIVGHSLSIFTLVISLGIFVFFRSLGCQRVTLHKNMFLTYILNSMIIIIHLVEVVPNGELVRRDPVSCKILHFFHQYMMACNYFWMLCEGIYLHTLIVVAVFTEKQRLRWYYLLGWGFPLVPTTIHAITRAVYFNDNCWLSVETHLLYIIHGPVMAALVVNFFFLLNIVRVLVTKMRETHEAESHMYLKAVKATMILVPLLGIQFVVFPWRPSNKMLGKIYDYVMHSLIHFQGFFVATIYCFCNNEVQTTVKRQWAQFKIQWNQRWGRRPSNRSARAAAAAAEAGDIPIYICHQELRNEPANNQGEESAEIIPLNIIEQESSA
T1 sequence (looked up) 2: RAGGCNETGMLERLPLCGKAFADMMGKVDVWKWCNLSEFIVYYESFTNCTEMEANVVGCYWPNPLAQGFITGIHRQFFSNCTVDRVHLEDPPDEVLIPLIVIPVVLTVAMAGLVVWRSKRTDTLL

B1: calcitonin derivative M19 (peptide)
peptide: {C20 diacid-γGlu}-ASQLSTAVLGRLSQELHRLQDYPRTDVGAGSP-NH2
SMILES: CC(C)C[C@H](NC(=O)[C@H](CCCNC(=N)N)NC(=O)CNC(=O)[C@H](CC(C)C)NC(=O)[C@@H](NC(=O)[C@H](C)NC(=O)[C@@H](NC(=O)[C@H](CO)NC(=O)[C@H](CC(C)C)NC(=O)[C@H](CCC(N)=O)NC(=O)[C@H](CO)NC(=O)[C@H](C)NC(=O)CC[C@H](NC(=O)CCCCCCCCCCCCCCCCCCC(=O)O)C(=O)O)[C@@H](C)O)C(C)C)C(=O)N[C@@H](CO)C(=O)N[C@@H](CCC(N)=O)C(=O)N[C@@H](CCC(=O)O)C(=O)N[C@@H](CC(C)C)C(=O)N[C@@H](Cc1c[nH]cn1)C(=O)N[C@@H](CCCNC(=N)N)C(=O)N[C@@H](CC(C)C)C(=O)N[C@@H](CCC(N)=O)C(=O)N[C@@H](CC(=O)O)C(=O)N[C@@H](Cc1ccc(O)cc1)C(=O)N1CCC[C@H]1C(=O)N[C@@H](CCCNC(=N)N)C(=O)N[C@H](C(=O)N[C@@H](CC(=O)O)C(=O)N[C@H](C(=O)NCC(=O)N[C@@H](C)C(=O)NCC(=O)N[C@@H](CO)C(=O)N1CCC[C@H]1C(N)=O)C(C)C)[C@@H](C)O
B2: calcitonin derivative M24 (peptide)
peptide: {C18 diacid}-EASQLSTAVLGRLSQELHRLQDYPRTDVGSGSP-NH2
SMILES: CC(C)C[C@H](NC(=O)[C@H](CCCNC(=N)N)NC(=O)CNC(=O)[C@H](CC(C)C)NC(=O)[C@@H](NC(=O)[C@H](C)NC(=O)[C@@H](NC(=O)[C@H](CO)NC(=O)[C@H](CC(C)C)NC(=O)[C@H](CCC(N)=O)NC(=O)[C@H](CO)NC(=O)[C@H](C)NC(=O)[C@H](CCC(=O)O)NC(=O)CCCCCCCCCCCCCCCCC(=O)O)[C@@H](C)O)C(C)C)C(=O)N[C@@H](CO)C(=O)N[C@@H](CCC(N)=O)C(=O)N[C@@H](CCC(=O)O)C(=O)N[C@@H](CC(C)C)C(=O)N[C@@H](Cc1c[nH]cn1)C(=O)N[C@@H](CCCNC(=N)N)C(=O)N[C@@H](CC(C)C)C(=O)N[C@@H](CCC(N)=O)C(=O)N[C@@H](CC(=O)O)C(=O)N[C@@H](Cc1ccc(O)cc1)C(=O)N1CCC[C@H]1C(=O)N[C@@H](CCCNC(=N)N)C(=O)N[C@H](C(=O)N[C@@H](CC(=O)O)C(=O)N[C@H](C(=O)NCC(=O)N[C@@H](CO)C(=O)NCC(=O)N[C@@H](CO)C(=O)N1CCC[C@H]1C(N)=O)C(C)C)[C@@H](C)O
B3: calcitonin derivative M57 (peptide)
peptide: {C20 diacid-γGlu-AEEA-AEEA}-ASQLSTAVLGRLSEELHRLQDYPRTDVGSGSP-NH2
SMILES: CC(C)C[C@H](NC(=O)[C@H](CCCNC(=N)N)NC(=O)CNC(=O)[C@H](CC(C)C)NC(=O)[C@@H](NC(=O)[C@H](C)NC(=O)[C@@H](NC(=O)[C@H](CO)NC(=O)[C@H](CC(C)C)NC(=O)[C@H](CCC(N)=O)NC(=O)[C@H](CO)NC(=O)[C@H](C)NC(=O)COCCOCCNC(=O)COCCOCCNC(=O)CC[C@H](NC(=O)CCCCCCCCCCCCCCCCCCC(=O)O)C(=O)O)[C@@H](C)O)C(C)C)C(=O)N[C@@H](CO)C(=O)N[C@@H](CCC(=O)O)C(=O)N[C@@H](CCC(=O)O)C(=O)N[C@@H](CC(C)C)C(=O)N[C@@H](Cc1c[nH]cn1)C(=O)N[C@@H](CCCNC(=N)N)C(=O)N[C@@H](CC(C)C)C(=O)N[C@@H](CCC(N)=O)C(=O)N[C@@H](CC(=O)O)C(=O)N[C@@H](Cc1ccc(O)cc1)C(=O)N1CCC[C@H]1C(=O)N[C@@H](CCCNC(=N)N)C(=O)N[C@H](C(=O)N[C@@H](CC(=O)O)C(=O)N[C@H](C(=O)NCC(=O)N[C@@H](CO)C(=O)NCC(=O)N[C@@H](CO)C(=O)N1CCC[C@H]1C(N)=O)C(C)C)[C@@H](C)O
B4: calcitonin derivative M23 (peptide)
peptide: {C18 diacid}-DASQLSTAVLGRLSQELHRLQDYPRTDVGSGSP-NH2
SMILES: CC(C)C[C@H](NC(=O)[C@H](CCCNC(=N)N)NC(=O)CNC(=O)[C@H](CC(C)C)NC(=O)[C@@H](NC(=O)[C@H](C)NC(=O)[C@@H](NC(=O)[C@H](CO)NC(=O)[C@H](CC(C)C)NC(=O)[C@H](CCC(N)=O)NC(=O)[C@H](CO)NC(=O)[C@H](C)NC(=O)[C@H](CC(=O)O)NC(=O)CCCCCCCCCCCCCCCCC(=O)O)[C@@H](C)O)C(C)C)C(=O)N[C@@H](CO)C(=O)N[C@@H](CCC(N)=O)C(=O)N[C@@H](CCC(=O)O)C(=O)N[C@@H](CC(C)C)C(=O)N[C@@H](Cc1c[nH]cn1)C(=O)N[C@@H](CCCNC(=N)N)C(=O)N[C@@H](CC(C)C)C(=O)N[C@@H](CCC(N)=O)C(=O)N[C@@H](CC(=O)O)C(=O)N[C@@H](Cc1ccc(O)cc1)C(=O)N1CCC[C@H]1C(=O)N[C@@H](CCCNC(=N)N)C(=O)N[C@H](C(=O)N[C@@H](CC(=O)O)C(=O)N[C@H](C(=O)NCC(=O)N[C@@H](CO)C(=O)NCC(=O)N[C@@H](CO)C(=O)N1CCC[C@H]1C(N)=O)C(C)C)[C@@H](C)O
B5: calcitonin derivative M40 (peptide)
peptide: {C16 diacid-γGlu}-ASQLSTAVLGRLSDELHRLQDYPRTDVGSGSP-NH2
SMILES: CC(C)C[C@H](NC(=O)[C@H](CCCNC(=N)N)NC(=O)CNC(=O)[C@H](CC(C)C)NC(=O)[C@@H](NC(=O)[C@H](C)NC(=O)[C@@H](NC(=O)[C@H](CO)NC(=O)[C@H](CC(C)C)NC(=O)[C@H](CCC(N)=O)NC(=O)[C@H](CO)NC(=O)[C@H](C)NC(=O)CC[C@H](NC(=O)CCCCCCCCCCCCCCC(=O)O)C(=O)O)[C@@H](C)O)C(C)C)C(=O)N[C@@H](CO)C(=O)N[C@@H](CC(=O)O)C(=O)N[C@@H](CCC(=O)O)C(=O)N[C@@H](CC(C)C)C(=O)N[C@@H](Cc1c[nH]cn1)C(=O)N[C@@H](CCCNC(=N)N)C(=O)N[C@@H](CC(C)C)C(=O)N[C@@H](CCC(N)=O)C(=O)N[C@@H](CC(=O)O)C(=O)N[C@@H](Cc1ccc(O)cc1)C(=O)N1CCC[C@H]1C(=O)N[C@@H](CCCNC(=N)N)C(=O)N[C@H](C(=O)N[C@@H](CC(=O)O)C(=O)N[C@H](C(=O)NCC(=O)N[C@@H](CO)C(=O)NCC(=O)N[C@@H](CO)C(=O)N1CCC[C@H]1C(N)=O)C(C)C)[C@@H](C)O
B6: calcitonin derivative M9 (peptide)
peptide: {C20 diacid-γGlu}-ASQLSTAVLGRLSEELHRLQDYPRTDVGSGSP-NH2
SMILES: CC(C)C[C@H](NC(=O)[C@H](CCCNC(=N)N)NC(=O)CNC(=O)[C@H](CC(C)C)NC(=O)[C@@H](NC(=O)[C@H](C)NC(=O)[C@@H](NC(=O)[C@H](CO)NC(=O)[C@H](CC(C)C)NC(=O)[C@H](CCC(N)=O)NC(=O)[C@H](CO)NC(=O)[C@H](C)NC(=O)CC[C@H](NC(=O)CCCCCCCCCCCCCCCCCCC(=O)O)C(=O)O)[C@@H](C)O)C(C)C)C(=O)N[C@@H](CO)C(=O)N[C@@H](CCC(=O)O)C(=O)N[C@@H](CCC(=O)O)C(=O)N[C@@H](CC(C)C)C(=O)N[C@@H](Cc1c[nH]cn1)C(=O)N[C@@H](CCCNC(=N)N)C(=O)N[C@@H](CC(C)C)C(=O)N[C@@H](CCC(N)=O)C(=O)N[C@@H](CC(=O)O)C(=O)N[C@@H](Cc1ccc(O)cc1)C(=O)N1CCC[C@H]1C(=O)N[C@@H](CCCNC(=N)N)C(=O)N[C@H](C(=O)N[C@@H](CC(=O)O)C(=O)N[C@H](C(=O)NCC(=O)N[C@@H](CO)C(=O)NCC(=O)N[C@@H](CO)C(=O)N1CCC[C@H]1C(N)=O)C(C)C)[C@@H](C)O
B7: calcitonin derivative M41 (peptide)
peptide: {C20 diacid}-EASQLSTAVLGRLSDELHRLQDYPRTDVGSGSP-NH2
SMILES: CC(C)C[C@H](NC(=O)[C@H](CCCNC(=N)N)NC(=O)CNC(=O)[C@H](CC(C)C)NC(=O)[C@@H](NC(=O)[C@H](C)NC(=O)[C@@H](NC(=O)[C@H](CO)NC(=O)[C@H](CC(C)C)NC(=O)[C@H](CCC(N)=O)NC(=O)[C@H](CO)NC(=O)[C@H](C)NC(=O)[C@H](CCC(=O)O)NC(=O)CCCCCCCCCCCCCCCCCCC(=O)O)[C@@H](C)O)C(C)C)C(=O)N[C@@H](CO)C(=O)N[C@@H](CC(=O)O)C(=O)N[C@@H](CCC(=O)O)C(=O)N[C@@H](CC(C)C)C(=O)N[C@@H](Cc1c[nH]cn1)C(=O)N[C@@H](CCCNC(=N)N)C(=O)N[C@@H](CC(C)C)C(=O)N[C@@H](CCC(N)=O)C(=O)N[C@@H](CC(=O)O)C(=O)N[C@@H](Cc1ccc(O)cc1)C(=O)N1CCC[C@H]1C(=O)N[C@@H](CCCNC(=N)N)C(=O)N[C@H](C(=O)N[C@@H](CC(=O)O)C(=O)N[C@H](C(=O)NCC(=O)N[C@@H](CO)C(=O)NCC(=O)N[C@@H](CO)C(=O)N1CCC[C@H]1C(N)=O)C(C)C)[C@@H](C)O

Target: T1, human amylin receptor (AMY3) on …
Assay: cell-based or functional assay

| Binder | EC50/nM, CRE-luciferase in amylin receptor/CRE-luc CHO cells [nM] |
| --- | --- |
| B1 | 0.016 |
| B2 | 0.016 |
| B3 | 0.017 |
| B4 | 0.01 |
| B5 | 0.002 |
| B6 | 0.017 |
| B7 | 0.069 |
